Results reported in the supplement of paper PMC11246515.
± gives the standard deviation of the averaged measurements.

Assay: total protein half-life in vivo (active degradation + dilution); higher = more stable protein
[1] = E. coli NCM3722 delta-clpP delta-lon delta-hslV, growth: N-lim chemostat, doubling time 6 h
[2] = E. coli NCM3722 delta-clpP, growth: N-lim chemostat, doubling time 6 h
[3] = E. coli NCM3722 delta-hslV, growth: N-lim chemostat, doubling time 6 h
[4] = E. coli NCM3722 delta-smpB, growth: N-lim chemostat, doubling time 6 h
[5] = wild type E. coli NCM3722, growth: C-lim chemostat, doubling time 3 h
[6] = wild type E. coli NCM3722, growth: C-lim chemostat, doubling time 6 h
[7] = wild type E. coli NCM3722, growth: C-lim chemostat, doubling time 12 h
[8] = wild type E. coli NCM3722, growth: N-lim chemostat, doubling time 6 h
[9] = wild type E. coli NCM3722, growth: N-lim chemostat, doubling time 12 h
[10] = wild type E. coli NCM3722, growth: P-lim chemostat, doubling time 6 h
[11] = wild type E. coli NCM3722, growth: P-lim chemostat, doubling time 12 h
[12] = E. coli NCM3722 delta-lon, growth: N-lim chemostat, doubling time 6 h

MMNDGKQQSTFLFHDYETFGTHPALDRPAQFAAIRTDSEFNVIGEPEVFYCKPADDYLPQPGAVLITGITPQEARAKGENEAAFAARIHSLFTVPKTCILGYNNVRFDDEVTRNIFYRNFYDPYAWSWQHDNSRWDLLDVMRACYALRPEGINWPENDDGLPSFRLEHLTKANGIEHSNAHDAMADVYATIAMAKLVKTRQPRLFDYLFTHRNKHKLMALIDVPQMKPLVHVSGMFGAWRGNTSWVAPLAWHPENRNAVIMVDLAGDISPLLELDSDTLRERLYTAKTDLGDNAAVPVKLVHINKCPVLAQANTLRPEDADRLGINRQHCLDNLKILRENPQVREKVVAIFAEAEPFTPSDNVDAQLYNGFFSDADRAAMKIVLETEPRNLPALDITFVDKRIEKLLFNYRARNFPGTLDYAEQQRWLEHRRQVFTPEFLQGYADELQMLVQQYADDKEKVALLKALWQYAEEIV
total protein half-life in vivo [1]: 5.14 ± 0.17 h | total protein half-life in vivo [2]: 4.99 ± 0.24 h | total protein half-life in vivo [3]: 4.41 ± 0.22 h | total protein half-life in vivo [4]: 3.9722 ± 0.0028 h | total protein half-life in vivo [5]: 3.12 ± 0.044 h | total protein half-life in vivo [6]: 5.87 ± 0.28 h | total protein half-life in vivo [7]: 9.97 ± 1.4 h | total protein half-life in vivo [8]: 4.297 ± 0.027 h | total protein half-life in vivo [9]: 6.577 ± 0.033 h | total protein half-life in vivo [10]: 6.73 ± 0.97 h | total protein half-life in vivo [11]: 12.3 ± 0.74 h

MMNNKVSFTNSNNPTISLSAVIYFPPKFDETRQYQAIVLSHPGGGVKEQTAGTYAKKLAEKGFVTIAYDASYQGESGGEPRQLENPYIRTEDISAVIDYLTTLSYVDNTRIGAMGICAGAGYTANAAIQDRRIKAIGTVSAVNIGSIFRNGWENNVKSIDALPYVEAGSNARTSDISSGEYAIMPLAPMKESDAPNEELRQAWEYYHTPRAQYPTAPGYATLRSLNQIITYDAYHMAEVYLTQPTQIVAGSQAGSKWMSDDLYDRASSQDKRYHIVEGANHMDLYDGKAYVAEAISVLAPFFEETL
total protein half-life in vivo [1]: 6.23 ± 1.9 h | total protein half-life in vivo [2]: 4.63 ± 0.35 h | total protein half-life in vivo [3]: 4.23 ± 0.18 h | total protein half-life in vivo [4]: 4.02 ± 0.44 h | total protein half-life in vivo [6]: 6.58 ± 0.55 h | total protein half-life in vivo [7]: 11.2 ± 1.6 h | total protein half-life in vivo [8]: 4.088 ± 0.028 h | total protein half-life in vivo [9]: 6.51 ± 0.44 h | total protein half-life in vivo [10]: 6.21 ± 0.18 h | total protein half-life in vivo [11]: 13.7 ± 2.8 h

MMNPLIIKLGGVLLDSEEALERLFSALVNYRESHQRPLVIVHGGGCVVDELMKGLNLPVKKKNGLRVTPADQIDIITGALAGTANKTLLAWAKKHQIAAVGLFLGDGDSVKVTQLDEELGHVGLAQPGSPKLINSLLENGYLPVVSSIGVTDEGQLMNVNADQAATALAATLGADLILLSDVSGILDGKGQRIAEMTAAKAEQLIEQGIITDGMIVKVNAALDAARTLGRPVDIASWRHAEQLPALFNGMPMGTRILA [P0A6C8]
total protein half-life in vivo [1]: 4.97 ± 0.82 h | total protein half-life in vivo [2]: 3.77 ± 0.19 h | total protein half-life in vivo [3]: 3.36 ± 0.25 h | total protein half-life in vivo [12]: 4.45 ± 0.17 h | total protein half-life in vivo [4]: 3.02 ± 0.15 h | total protein half-life in vivo [5]: 2.84 ± 0.045 h | total protein half-life in vivo [6]: 5.19 ± 0.41 h | total protein half-life in vivo [7]: 10.3 ± 3.4 h | total protein half-life in vivo [8]: 3.404 ± 0.033 h | total protein half-life in vivo [9]: 4.813 ± 0.046 h | total protein half-life in vivo [10]: 4.58 ± 0.39 h | total protein half-life in vivo [11]: 7.92 ± 0.16 h

MMNSTNKLSVIIPLYNAGDDFRTCMESLITQTWTALEIIIINDGSTDNSVEIAKYYAENYPHVRLLHQANAGASVARNRGIEVATGKYVAFVDADDEVYPTMYETLMTMALEDDLDVAQCNADWCFRETGETWQSIPTDRLRSTGVLTGPDWLRMGLSSRRWTHVVWMGVYRRDVIVKNNIKFIAGLHHQDIVWTTEFMFNALRARYTEQSLYKYYLHNTSVSRLHRQGNKNLNYQRHYIKITRLLEKLNRNYADKIMIYPEFHQQITYEALRVCHAVRKEPDILTRQRMIAEIFTSGMYKRLITNVRSVKVGYQALLWSFRLWQWRDKTRSHHRITRSAFNLR
total protein half-life in vivo [1]: 5.55 ± 0.4 h | total protein half-life in vivo [2]: 0.858 h | total protein half-life in vivo [4]: 0.809 ± 0.17 h | total protein half-life in vivo [10]: 0.32 ± 0.2 h | total protein half-life in vivo [11]: 0.789 ± 0.74 h

MMPQSLPDTTTPKRRFRWPTGMPQLVALLLVLLVDSLVAPHFWQVVLQDGRLFGSPIDILNRAAPVALLAIGMTLVIATGGIDLSVGAVMAIAGATTAAMTVAGFSLPIVLLSALGTGILAGLWNGILVAILKIQPFVATLILMVAGRGVAQLITAGQIVTFNSPDLSWFGSGSLLFLPTPVIIAVLTLILFWLLTRKTALGMFIEAVGINIRAAKNAGVNTRIIVMLTYVLSGLCAAIAGIIVAADIRGADANNAGLWLELDAILAVVIGGGSLMGGRFNLLLSVVGALIIQGMNTGILLSGFPPEMNQVVKAVVVLCVLIVQSQRFISLIKGVRSRDKT
total protein half-life in vivo [7]: 8.92 h

MMQPSIKPADEHSAGDIIARIGSLTRMLRDSLRELGLDQAIAEAAEAIPDARDRLYYVVQMTAQAAERALNSVEASQPHQDQMEKSAKALTQRWDDWFADPIDLADARELVTDTRQFLADVPAHTSFTNAQLLEIMMAQDFQDLTGQVIKRMMDVIQEIERQLLMVLLENIPEQESRPKRENQSLLNGPQVDTSKAGVVASQDQVDDLLDSLGF [P0A9H9]
total protein half-life in vivo [7]: 2.6 h

MMQTVLAKIVADKAIWVEARKQQQPLASFQNEVQPSTRHFYDALQGARTAFILECKKASPSKGVIRDDFDPARIAAIYKHYASAISVLTDEKYFQGSFNFLPIVSQIAPQPILCKDFIIDPYQIYLARYYQADACLLMLSVLDDDQYRQLAAVAHSLEMGVLTEVSNEEEQERAIALGAKVVGINNRDLRDLSIDLNRTRELAPKLGHNVTVISESGINTYAQVRELSHFANGFLIGSALMAHDDLHAAVRRVLLGENKVCGLTRGQDAKAAYDAGAIYGGLIFVATSPRCVNVEQAQEVMAAAPLQYVGVFRNHDIADVVDKAKVLSLAAVQLHGNEEQLYIDTLREALPAHVAIWKALSVGETLPAREFQHVDKYVLDNGQGGSGQRFDWSLLNGQSLGNVLLAGGLGADNCVEAAQTGCAGLDFNSAVESQPGIKDARLLASVFQTLRAY
total protein half-life in vivo [1]: 4.8 ± 0.34 h | total protein half-life in vivo [2]: 4.62 ± 1 h | total protein half-life in vivo [3]: 4.15 ± 0.2 h | total protein half-life in vivo [12]: 5.01 ± 0.64 h | total protein half-life in vivo [4]: 4.1 ± 0.18 h | total protein half-life in vivo [5]: 2.91 ± 0.1 h | total protein half-life in vivo [6]: 4.97 ± 0.14 h | total protein half-life in vivo [7]: 7.713 ± 0.011 h | total protein half-life in vivo [8]: 4 ± 0.086 h | total protein half-life in vivo [9]: 6.392 ± 0.053 h | total protein half-life in vivo [10]: 4.9 ± 0.078 h | total protein half-life in vivo [11]: 9.51 ± 0.49 h

MMSLAWPLFRVTEQAALAAWPQTGCGDKNKIDGLAVTAMRQALNDVAFRGRVVIGEGEIDHAPMLWIGEEVGKGDGPEVDIAVDPIEGTRMVAMGQSNALAVMAFAPRDSLLHAPDMYMKKLVVNRLAAGAIDLSLPLTDNLRNVAKALGKPLDKLRMVTLDKPRLSAAIEEATQLGVKVFALPDGDVAASVLTCWQDNPYDVMYTIGGAPEGVISACAVKALGGDMQAELIDFCQAKGDYTENRQIAEQERKRCKAMGVDVNRVYSLDELVRGNDILFSATGVTGGELVNGIQQTANGVRTQTLLIGGADQTCNIIDSLH
total protein half-life in vivo [1]: 3.96 h

MMSQPAKVLLLYAHPESQDSVANRVLLKPATQLSNVTVHDLYAHYPDFFIDIPREQALLREHEVIVFQHPLYTYSCPALLKEWLDRVLSRGFASGPGGNQLAGKYWRSVITTGEPESAYRYDALNRYPMSDVLRPFELAAGMCRMHWLSPIIIYWARRQSAQELASHARAYGDWLANPLSPGGR [P0A756]
total protein half-life in vivo [1]: 5.94 ± 0.44 h | total protein half-life in vivo [2]: 5.15 ± 0.59 h | total protein half-life in vivo [3]: 5.89 ± 0.62 h | total protein half-life in vivo [12]: 5.99 ± 0.26 h | total protein half-life in vivo [4]: 5.51 ± 0.33 h | total protein half-life in vivo [5]: 2.94 ± 0.079 h | total protein half-life in vivo [6]: 5.7 ± 1.1 h | total protein half-life in vivo [7]: 10.6 ± 2.5 h | total protein half-life in vivo [8]: 5.63 ± 0.52 h | total protein half-life in vivo [9]: 10.74 ± 0.04 h | total protein half-life in vivo [10]: 5.239 ± 0.0081 h | total protein half-life in vivo [11]: 10.6 ± 0.47 h

MMSTTLFKDFTFEAAHRLPHVPEGHKCGRLHGHSFMVRLEITGEVDPHTGWIIDFAELKAAFKPTYERLDHHYLNDIPGLENPTSEVLAKWIWDQVKPVVPLLSAVMVKETCTAGCIYRGE
total protein half-life in vivo [1]: 4.72 ± 1 h | total protein half-life in vivo [2]: 6.75 ± 0.54 h | total protein half-life in vivo [3]: 5.07 h | total protein half-life in vivo [12]: 6.5 ± 0.67 h | total protein half-life in vivo [4]: 5.53 ± 0.14 h | total protein half-life in vivo [6]: 6.53 ± 0.12 h | total protein half-life in vivo [7]: 12.7 ± 0.82 h | total protein half-life in vivo [8]: 7.08 h | total protein half-life in vivo [9]: 13.1 ± 1.2 h | total protein half-life in vivo [10]: 6.75 ± 0.27 h | total protein half-life in vivo [11]: 13.2 h

MMTTILTIHVPSTPGRAWNMLVALQAGNIVARYAKLHLYDAFAIQESRRVDAGNEIAPLLEVEGMKVGLMTCYDLRFPELALAQALQGAEILVLPAAWVRGPLKEHHWSTLLAARALDTTCYMVAAGECGNKNIGQSRIIDPFGVTIAAASEMPALIMAEVTPERVRQVRAQLPVLNNRRFAPPQLL [P0DP64]
total protein half-life in vivo [1]: 7.53 h
